Measurements from paper PMC11651597, “Characterization of a novel subfamily 1.4 lipase from Bacillus licheniformis IBRL-CHS2: Cloning and expression optimization” (PLOS ONE, 2024).

Substrate: CCCCCCCCCCCC(=O)Oc1ccc([N+](=O)[O-])cc1
Assay: purified protein
Type: biochemical, Bacillus licheniformis
Details: 0.1-1 mM substrate, standard assay pH 7 phosphate buffer, 35 °C, 0.01% Triton X-100, 0.1% polyvinyl alcohol, DMSO

B1: MLipA (mature LipA lipase of B. licheniformis IBRL-CHS2) (Bacillus licheniformis DSM 13 = ATCC 14580) (protein)
chain: ASHNPVVMVHGIGGADYNFIGIKSYLQSQGWTSSELYAINFIDKTGNNINNAPRLSEYIKRVLNQTGASKVDIVAHSMGGANTLYYIKNLDGADKVGHVVTLGGANRLVTNTAPQNDKISYTSIYSTSDYIVLNSLSKLDGANNVQISGVSHVGLLFSSKVNALIKDGLTASGK
notes: signal peptide (residues 1-30) removed; E. coli BL21 (DE3); IMAC purified
Km: 360 µM
